Assay results reported in US20220064275A1 (SCHOLAR ROCK, published 2022).

What was measured:
[1] = biological target: T1, murine LTBP3-proTGFβ1 complex (mouse, UniProt Q61810 41-1245; P04202 30-390, limits assumed); test: MSD-SET, solution equilibrium titration; MSD-SET, Table 21, mouse complex
T1 construct: also called mLTBP3-proTGFβ1

[2] = biological target: T2, human LTBP3-proTGFβ1 complex (human, UniProt Q9NS15 866-1039); test: MSD-SET solution equilibrium titration; Ab6 titrated against biotinylated hLTBP3-proTGFβ1, readout % free antigen
T2 construct: range 866-1039; also called hLTBP3-proTGFβ1; hLTBP3
T2 sequence (Q9NS15 866-1039 limits assumed, chain 1 of 2): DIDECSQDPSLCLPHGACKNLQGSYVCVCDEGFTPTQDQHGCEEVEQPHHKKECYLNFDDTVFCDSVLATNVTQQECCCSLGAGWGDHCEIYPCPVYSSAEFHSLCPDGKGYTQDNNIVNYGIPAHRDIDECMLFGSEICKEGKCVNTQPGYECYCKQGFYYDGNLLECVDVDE
T2 sequence (chain, as listed by the source limits assumed, chain 2 of 2): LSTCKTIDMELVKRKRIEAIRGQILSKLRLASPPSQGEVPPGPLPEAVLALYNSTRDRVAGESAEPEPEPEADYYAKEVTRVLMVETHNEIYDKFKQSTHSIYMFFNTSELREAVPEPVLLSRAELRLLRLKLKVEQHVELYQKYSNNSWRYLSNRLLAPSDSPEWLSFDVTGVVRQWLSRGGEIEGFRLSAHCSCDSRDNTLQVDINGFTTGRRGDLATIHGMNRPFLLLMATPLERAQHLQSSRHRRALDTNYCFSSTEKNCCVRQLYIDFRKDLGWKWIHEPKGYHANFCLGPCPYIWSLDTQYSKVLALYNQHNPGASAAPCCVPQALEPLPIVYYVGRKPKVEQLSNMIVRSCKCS
Protocol: (§1) MSD-SET assays were performed to measure affinities of the antibodies at equilibrium. Briefly, each test antibody was diluted 3-5 fold and samples were mixed with biotinylated antigen in a 48-well dish. The SET samples were equilibrated for 20-24 hours at room temperature. Meanwhile, a capture plate was coated with IgG (20 nM) and incubated overnight at 4° C. or 30 minutes at room temperature, followed by a blocking step with 5% BSA. After the capture plate was washed three times, SET samples were added and incubated for 150 seconds. The plate was washed once to remove unbound complexes. 250 ng/ml SA-Sulfotag was added then washed 3 times. 2× Read Buffer was added, and signals from the labeled bound complexes were read with the use of QuickPlex™ SQ 120 instrument.
(§2) As an example, MSD standard plates (MSD) were coated with a 20 nM solution of monoclonal antibody in PBS for 30 min at room temperature or overnight at 4° C. […] After 20-24 hours of equilibration, the antibody-coated plate was blocked with Blocking Buffer A (MSD) for 30 minutes at room temperature and washed with wash buffer (PBS, 0.1% BSA, 0.05% Tween-20) before adding the equilibrated antibody-antigen complexes to the plate for exactly 2.5 minutes. […] After washing with wash buffer, plates were read in MSD read buffer (MSD) using the MESO QuickPlex SQ 120 (MSD). […]

[3] = biological target: T3, human proTGFβ1 C4S (human, UniProt P01137 30-390); test: method not described
T3 construct: Small latent complex without presenting molecule; the cysteine that links to presenting molecules is changed to serine; also called small latent complex proTGFβ1 C4S; latent TGFβ1
T3 sequence (P01137 other isoform, or with tags, fused parts or gaps): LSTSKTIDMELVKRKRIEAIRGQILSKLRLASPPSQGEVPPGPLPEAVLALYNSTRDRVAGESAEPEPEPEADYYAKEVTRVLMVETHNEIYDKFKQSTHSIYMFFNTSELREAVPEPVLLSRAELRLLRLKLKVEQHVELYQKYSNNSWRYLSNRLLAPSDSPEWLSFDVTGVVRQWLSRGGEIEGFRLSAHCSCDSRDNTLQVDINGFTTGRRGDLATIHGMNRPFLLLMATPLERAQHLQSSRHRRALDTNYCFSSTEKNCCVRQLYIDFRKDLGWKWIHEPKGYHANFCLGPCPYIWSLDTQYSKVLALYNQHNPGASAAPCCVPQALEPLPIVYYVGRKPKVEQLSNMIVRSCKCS

[4] = biological target: T4, human LRRC33-proTGFβ1 complex (human, UniProt Q86YC3 19-650; P01137 30-390); test: MSD-SET solution equilibrium titration; Ab6 titrated against biotinylated hLRRC33-proTGFβ1, readout % free antigen
T4 construct: also called hLRRC33-proTGFβ1; hLRRC33
T4 sequence (Q86YC3 other isoform, or with tags, fused parts or gaps limits assumed, chain 1 of 2): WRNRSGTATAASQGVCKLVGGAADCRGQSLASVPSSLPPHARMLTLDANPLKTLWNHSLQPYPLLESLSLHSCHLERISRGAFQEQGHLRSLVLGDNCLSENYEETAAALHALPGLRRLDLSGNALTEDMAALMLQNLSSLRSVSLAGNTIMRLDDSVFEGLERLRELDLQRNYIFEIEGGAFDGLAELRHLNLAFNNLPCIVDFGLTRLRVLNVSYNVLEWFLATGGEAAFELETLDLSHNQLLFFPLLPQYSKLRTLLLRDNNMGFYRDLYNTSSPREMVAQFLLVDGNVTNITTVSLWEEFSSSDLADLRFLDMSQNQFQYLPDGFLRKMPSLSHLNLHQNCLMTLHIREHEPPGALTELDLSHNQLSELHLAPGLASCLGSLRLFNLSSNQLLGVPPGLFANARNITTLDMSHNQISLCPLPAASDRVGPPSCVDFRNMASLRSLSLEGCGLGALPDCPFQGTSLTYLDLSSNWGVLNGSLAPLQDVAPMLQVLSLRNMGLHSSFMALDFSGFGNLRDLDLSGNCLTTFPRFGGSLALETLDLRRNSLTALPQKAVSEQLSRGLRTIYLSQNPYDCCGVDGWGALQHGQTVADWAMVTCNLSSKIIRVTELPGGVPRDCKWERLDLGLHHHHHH
T4 sequence (P01137 30-390 limits assumed, chain 2 of 2): as the sequence (P01137 other isoform, or with tags, fused parts or gaps) above, with S4C counted along it
Protocol: as §1, §2

[5] = biological target: T5, human LTBP1-proTGFβ1 complex (human, UniProt Q14766 873-1507); test: MSD-SET solution equilibrium titration; Ab6 titrated against biotinylated hLTBP1-proTGFβ1, readout % free antigen
T5 construct: range 873-1507; biotinylated in Octet and MSD-SET; also called hLTBP1-proTGFβ1; hLTBP1
T5 sequence (Q14766 873-1507 limits assumed, chain 1 of 2): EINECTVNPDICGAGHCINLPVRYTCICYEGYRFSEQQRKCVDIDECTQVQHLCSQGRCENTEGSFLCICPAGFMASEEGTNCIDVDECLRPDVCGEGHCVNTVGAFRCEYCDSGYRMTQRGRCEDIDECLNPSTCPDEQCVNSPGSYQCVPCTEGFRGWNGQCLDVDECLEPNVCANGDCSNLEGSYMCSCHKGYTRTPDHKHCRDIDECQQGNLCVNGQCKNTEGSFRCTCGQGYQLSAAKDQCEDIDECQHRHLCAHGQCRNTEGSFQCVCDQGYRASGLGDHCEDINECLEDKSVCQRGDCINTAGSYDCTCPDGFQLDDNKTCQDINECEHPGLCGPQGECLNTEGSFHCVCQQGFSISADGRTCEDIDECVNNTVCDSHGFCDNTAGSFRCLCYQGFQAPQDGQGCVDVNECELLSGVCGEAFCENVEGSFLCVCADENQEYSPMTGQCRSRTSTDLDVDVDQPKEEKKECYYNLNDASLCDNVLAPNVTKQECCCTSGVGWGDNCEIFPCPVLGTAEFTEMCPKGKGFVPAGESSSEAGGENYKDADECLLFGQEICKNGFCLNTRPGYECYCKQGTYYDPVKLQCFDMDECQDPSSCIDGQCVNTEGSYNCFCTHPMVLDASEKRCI
T5 sequence (chain, as listed by the source limits assumed, chain 2 of 2): as the sequence (P01137 other isoform, or with tags, fused parts or gaps) above, with S4C counted along it
Protocol: as §1, §2

[6] = biological target: T4, human LRRC33-proTGFβ1 complex; test: BLI (Octet)
[7] = biological target: T5, human LTBP1-proTGFβ1 complex; test: BLI (Octet)
[8] = biological target: T2, human LTBP3-proTGFβ1 complex; test: BLI (Octet)
[9] = biological target: T6, human GARP-proTGFβ1 complex (human, UniProt Q14392 20-627; P01137 30-390); test: BLI (Octet)
T6 construct: also called hGARP-proTGFβ1; hGARP
T6 sequence (Q14392 20-627, chain 1 of 2): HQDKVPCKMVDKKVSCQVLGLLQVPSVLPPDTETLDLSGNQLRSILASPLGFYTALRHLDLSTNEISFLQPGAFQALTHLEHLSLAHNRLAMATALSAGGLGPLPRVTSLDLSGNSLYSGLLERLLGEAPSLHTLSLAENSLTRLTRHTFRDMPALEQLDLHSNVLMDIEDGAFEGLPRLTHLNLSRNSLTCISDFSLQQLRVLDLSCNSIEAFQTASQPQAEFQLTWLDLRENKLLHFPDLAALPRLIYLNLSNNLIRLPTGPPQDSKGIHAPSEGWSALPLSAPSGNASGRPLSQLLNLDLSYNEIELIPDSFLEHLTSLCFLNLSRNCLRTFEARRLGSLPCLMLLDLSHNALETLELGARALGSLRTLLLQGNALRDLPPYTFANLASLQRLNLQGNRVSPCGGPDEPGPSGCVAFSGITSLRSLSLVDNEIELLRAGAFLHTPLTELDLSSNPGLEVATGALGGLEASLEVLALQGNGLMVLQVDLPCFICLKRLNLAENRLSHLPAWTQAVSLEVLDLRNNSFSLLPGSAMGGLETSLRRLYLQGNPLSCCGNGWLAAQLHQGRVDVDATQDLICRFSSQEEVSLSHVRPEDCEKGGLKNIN
T6 sequence (P01137 30-390, chain 2 of 2): as the sequence (P01137 other isoform, or with tags, fused parts or gaps) above, with S4C counted along it

[10] = biological target: T6, human GARP-proTGFβ1 complex; test: MSD-SET solution equilibrium titration; Ab6 titrated against biotinylated hGARP-proTGFβ1, readout % free antigen
Protocol: as §1, §2

[11] = biological target: T4, human LRRC33-proTGFβ1 complex; test: MSD-SET, solution equilibrium titration
[12] = biological target: T5, human LTBP1-proTGFβ1 complex; test: MSD-SET, solution equilibrium titration
[13] = biological target: T2, human LTBP3-proTGFβ1 complex; test: MSD-SET, solution equilibrium titration
[14] = biological target: T6, human GARP-proTGFβ1 complex; test: MSD-SET, solution equilibrium titration
[15] = biological target: T4, human LRRC33-proTGFβ1 complex; test: MSD-SET, solution equilibrium titration; remark: listed apart in the source
Protocol: as §1
(§3) As an example, MSD standard plates (MSD) were coated with a 20 nM solution of monoclonal antibody in PBS for 30 min at room temperature or overnight at 4° C. […] After 20-24 hours of equilibration, the antibody-coated plate was blocked with Blocking Buffer A (MSD) for 30 minutes at room temperature and washed with wash buffer (PBS, 0.1% BSA, 0.05% Tween-20) before adding the equilibrated antibody-antigen complexes to the plate for exactly 2.5 minutes. The plate was washed again with wash buffer before adding 250 ng/ml SULFO-TAG-labeled streptavidin secondary reagent (MSD) in PBS with 0.1% BSA. After washing with wash buffer, plates were read in MSD read buffer (MSD) using the MESO QuickPlex SQ 120 (MSD). The binding data were processed by nonlinear curve fitting in Prism 7 software (Graphpad) to calculate equilibrium binding KD values.

[16] = biological target: T5, human LTBP1-proTGFβ1 complex; test: MSD-SET, solution equilibrium titration; remark: listed apart in the source
Protocol: as §1, §3

[17] = biological target: T2, human LTBP3-proTGFβ1 complex; test: MSD-SET, solution equilibrium titration; remark: listed apart in the source
Protocol: as §1, §3

[18] = biological target: T1, murine LTBP3-proTGFβ1 complex; test: MSD-SET, solution equilibrium titration
Protocol: as §1, §3

[19] = biological target: T7, murine LRRC33-proTGFβ1 complex (mouse, UniProt Q8BMT4 20-651, limits assumed); test: MSD-SET, solution equilibrium titration
T7 construct: also called mLRRC33-proTGFβ1
T7 sequence (Q8BMT4 20-651 limits assumed, chain 1 of 2): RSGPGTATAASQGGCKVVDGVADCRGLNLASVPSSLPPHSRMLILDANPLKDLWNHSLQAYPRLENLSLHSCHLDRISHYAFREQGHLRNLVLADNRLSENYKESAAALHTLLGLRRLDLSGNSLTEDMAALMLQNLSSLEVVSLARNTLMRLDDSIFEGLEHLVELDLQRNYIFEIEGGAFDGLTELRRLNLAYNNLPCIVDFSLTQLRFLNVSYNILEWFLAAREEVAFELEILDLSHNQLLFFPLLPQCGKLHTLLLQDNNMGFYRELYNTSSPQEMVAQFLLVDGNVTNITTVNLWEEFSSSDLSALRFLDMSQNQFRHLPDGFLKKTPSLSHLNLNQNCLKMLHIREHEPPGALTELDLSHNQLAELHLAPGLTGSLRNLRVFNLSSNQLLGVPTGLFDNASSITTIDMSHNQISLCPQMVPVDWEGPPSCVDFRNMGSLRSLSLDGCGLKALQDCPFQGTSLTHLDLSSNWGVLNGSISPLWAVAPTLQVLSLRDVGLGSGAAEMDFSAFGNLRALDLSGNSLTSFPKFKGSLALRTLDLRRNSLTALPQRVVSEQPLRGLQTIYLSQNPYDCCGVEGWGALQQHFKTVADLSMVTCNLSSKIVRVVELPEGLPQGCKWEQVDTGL
T7 sequence (chain, as listed by the source limits assumed, chain 2 of 2): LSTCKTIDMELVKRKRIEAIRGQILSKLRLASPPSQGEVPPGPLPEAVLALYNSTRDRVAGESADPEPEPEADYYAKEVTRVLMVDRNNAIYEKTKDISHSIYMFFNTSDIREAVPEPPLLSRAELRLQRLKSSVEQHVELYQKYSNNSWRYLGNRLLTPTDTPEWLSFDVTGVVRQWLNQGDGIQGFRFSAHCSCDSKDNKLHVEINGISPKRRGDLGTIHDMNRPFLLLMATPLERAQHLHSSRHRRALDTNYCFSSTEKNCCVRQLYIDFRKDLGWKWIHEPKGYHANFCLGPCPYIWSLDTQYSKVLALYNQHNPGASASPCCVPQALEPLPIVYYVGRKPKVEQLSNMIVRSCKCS
Protocol: as §1, §3

[20] = biological target: T8, murine LTBP1-proTGFβ1 complex (mouse, UniProt Q8CG19 339-1712; P04202 30-390, limits assumed); test: MSD-SET, solution equilibrium titration
T8 construct: also called mLTBP1-proTGFβ1
Protocol: as §1, §3

[21] = biological target: T6, human GARP-proTGFβ1 complex; test: MSD-SET, solution equilibrium titration; remark: listed apart in the source
Protocol: as §1, §3

[22] = biological target: T9, murine GARP-proTGFβ1 complex (mouse, UniProt G3XA59 18-628; P04202 30-390); test: MSD-SET, solution equilibrium titration
T9 construct: Soluble murine complex; also called mGARP-proTGFβ1
Protocol: as §1, §3

B1: Ab6 (antibody, human IgG4 S228P, kappa, V domains shown)
VH: EVQLVESGGGLVQPGGSLRLSCTASGFTFSSFSMDWVRQAPGKGLEWVSYISPSADTIYYADSVKGRFTISRDNAKNTLYLQMNSLRAEDTAVYYCARGVLDYGDMLMPWGQGTLVTVSS
VL: DIQMTQSPSSLSASVGDRVTITCQASQDITNYLNWYQQKPGKAPKLLIYDASNLETGVPSRFSGSGSGTDFTFTISSLQPEDIATYYCQQADNHPPWTFGGGTKVEIKR
Kd [1]: 0.022 nM | IC50 (read off the curve) [2]: ~0.03 nM | binding result [3]: binds | IC50 (read off the curve) [4]: ~0.07 nM | IC50 (read off the curve) [5]: ~0.02 nM | Kd [6]: 0.336 nM | Kd [7]: 0.207 nM | Kd [8]: 0.123 nM | Kd [9]: 0.404 nM | IC50 (read off the curve) [10]: ~0.03 nM | Kd [11]: 0.063 nM | Kd [12]: 0.018 nM | Kd [13]: 0.029 nM | Kd [14]: 0.027 nM | Kd [15]: 0.063 nM | Kd [16]: 0.018 nM | Kd [17]: 0.029 nM | Kd [18]: 0.028 nM | Kd [19]: 0.048 nM | Kd [20]: 0.024 nM | Kd [21]: 0.027 nM | Kd [22]: 0.021 nM
